System: Human dermal fibroblast adult (HDFa) cells
Assay: Cell proliferation of HDFa by crystal violet staining
Format: cell-based
Conditions: 0.02 or 0.2 ppm, 3 days at 37° C., compared to a control (FIG. 5)
Procedure: Human dermal fibroblast adult (HDFa) cells, which had been cultured to evaluate the activity of SV82 polypeptide that has been separated and purified in Example 2, were treated with SV82 polypeptide having a concentration of 0, 0.02 ppm or 0.2 ppm, and then incubated for 3 days at a temperature of 37° C. Thereafter, the cells were stained by crystal violate staining to identify whether the cells had proliferated.

B1: SV82 polypeptide (protein)
chain: MKYLLPTAAAGLLLLAAQPAMARATCAGQDQPCKETCDCCGERGECVCGGPCICRQGYFWIAWYKLANCKKLEHHHHHH
modifications: SV82
- cell proliferation of HDFa (crystal violet staining): the more HDFa cells proliferate
